Measurements: publication PMC4995489, “Staphylokinase has distinct modes of interaction with antimicrobial peptides, modulating its plasminogen-activation properties” (Scientific Reports, 2016)
Positions count from the first letter of the chain named. Entries after “also recorded” stand apart in the source; their conditions may differ. Bridges are numbered along the chain shown (N, C = ends). Where no end group is shown, it is not given here.

What was measured:
[1] = biological target: T1, staphylokinase (Sak, full-length, sakSTAR sequence, C-terminal His6-tag) (Staphylococcus aureus, UniProt Q99SU7); test: ITC of antimicrobial peptide binding to full-length staphylokinase; conditions: 25 °C, 200–400 μM peptide titrated into 8 μM Sak, 20 mM HEPES pH 7.4, One Set of Sites model, at least two experiments
T1 construct: Staphylokinase contains 136 amino acids and has a molecular weight of 15.5 kDa; made in house; host or cells: E. coli BL21 (DE3), pET29b, synthetic gene from GeneArt
T1 sequence (Q99SU7 28-163): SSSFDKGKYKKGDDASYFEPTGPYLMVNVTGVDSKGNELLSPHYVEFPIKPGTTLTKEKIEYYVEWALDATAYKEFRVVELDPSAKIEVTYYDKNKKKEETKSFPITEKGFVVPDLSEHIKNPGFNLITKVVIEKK
Experimental: (§1) Most peptides were purchased from Genscript (Piscataway, NJ) as custom-synthesized peptides synthesized using standard 9-fluorenylmethyoxycarbonyl (Fmoc) chemistry and they were purified by HPLC to >95% purity. […] The concentrations for most of the peptides were determined by UV absorption at 280 nm using molar extinction coefficients determined by ProtParam[54].
(§2) A synthetic gene for staphylokinase with optimized codons for expression in Escherichia coli was purchased from GeneArt (Life Technologies). Staphylokinase genes have been cloned and sequenced from different origins: the bacteriophages sakφC and sak42D, and the genomic DNA of a lysogenic S. aureus strain (sakSTAR)[56]. These indicate amino acid sequence differences at three positions in the coding sequences. In this study, we have worked with the sakSTAR protein sequence as it is the most commonly used variant. The gene was subcloned into a pET29b (Novagen), giving the expressed protein a C-terminal His6-tag when expressed in E. coli BL21 (DE3) cells.
(§3) All ITC runs were performed at 25 °C on a MicroCal VP-ITC microcalorimeter (Malvern, Westborough, MA). 200–400 μM peptide was titrated into 8 μM SakΔN10 or Sak in 20 mM HEPES, pH 7.4. […] Data analysis was performed using the MicroCal Origin software using the “One Set of Sites” binding model. At least two experiments were performed for each titration. Statistical analysis was performed to confirm the statistical validity of the differences in the KD values determined for LfcinB and Tritrp binding to SakΔN10 or Sak. p-values were calculated from Student’s t-tests at the 95% confidence level with a one-tailed hypothesis.

[2] = biological target: T2, SakΔN10 (staphylokinase with its first ten residues deleted, C-terminal His6-tag) (Staphylococcus aureus, UniProt Q99SU7); test: ITC of antimicrobial peptide binding to SakΔN10; conditions: 25 °C; for Kd / KD: 200–400 μM peptide titrated into 8 μM SakΔN10, 20 mM HEPES pH 7.4, One Set of Sites model, at least two experiments
T2 construct: Staphylokinase contains 136 amino acids and has a molecular weight of 15.5 kDa; made in house; host or cells: E. coli BL21 (DE3), pET29b
T2 sequence (Q99SU7 38-163): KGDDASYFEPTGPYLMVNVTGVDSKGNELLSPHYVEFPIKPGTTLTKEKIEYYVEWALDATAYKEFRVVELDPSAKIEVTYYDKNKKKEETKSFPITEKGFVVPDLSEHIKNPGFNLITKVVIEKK
Experimental: as §1, §2, §3

[3] = system: Sak-dependent plasminogen activation; conditions: mCRAMP expression upregulated during staphylococcal pneumonia, intranasal infection mouse model; cited from earlier work
From the text: In the present study, our aim was to evaluate staphylokinase as a more general interacting partner for antimicrobial peptides of different structures and origin. […] It is possible that additional factors may be involved in promoting its binding in vivo.

[4] = biological target: T3, SakΔN10 (staphylokinase with its first ten residues deleted) (Staphylococcus aureus, UniProt P68802 38-163); test: ITC; 200-400 μM peptide titrated into 8 μM Sak or SakΔN10 in the cell; 25 °C; 20 mM HEPES, pH 7.4, no salt; One Set of Sites model; at least two experiments each; conditions: both partners purified
T3 construct: not shown: His6, C-terminal, kept
T3 sequence: T2 sequence (Q99SU7 38-163) with S24G

[5] = biological target: T4, Staphylokinase (full-length Sak, sakSTAR sequence) (Staphylococcus aureus, UniProt P68802 28-163); test: as above; conditions: both partners purified
T4 construct: also called wtSak; full Sak; not shown: His6, C-terminal, kept
T4 sequence: T1 sequence (Q99SU7 28-163) with S34G

[6] = biological target: T4, Staphylokinase (full-length Sak, …); test: as above; conditions: both partners purified; remark: listed apart in the source
[7] = biological target: T3, SakΔN10 (staphylokinase with its first …); test: as above; conditions: both partners purified; remark: listed apart in the source
[8] = biological target: T4, Staphylokinase (full-length Sak, …); test: ITC + NMR titration; ITC of mCRAMP into full-length Sak repeated at 37 °C, together with the NMR titration data; not shown; conditions: both partners purified

CC(C)C[C@H](NC(=O)[C@H](Cc1ccccc1)NC(=O)[C@@H]1CCCN1C(=O)[C@H](Cc1c[nH]c2ccccc12)NC(=O)[C@H](Cc1c[nH]c2ccccc12)NC(=O)[C@H](Cc1c[nH]c2ccccc12)NC(=O)[C@@H]1CCCN1C(=O)[C@H](Cc1ccccc1)NC(=O)[C@H](CCCNC(=N)N)NC(=O)[C@H](CCCNC(=N)N)NC(=O)[C@@H](N)C(C)C)C(=O)N[C@@H](CCCNC(=N)N)C(=O)N[C@@H](CCCNC(=N)N)C(N)=O [Tritrp]
Kd [1]: 11.2 µM | Kd [2]: 2.42 µM

melittin
KD [1]: weak interaction | N (stoichiometry) ([2]; 200–400 μM peptide into 8 μM SakΔN10, 20 mM HEPES pH 7.4, One Set of Sites model): ~1 | KD [2]: weak interaction

GLLRKGGEKIGEKLKKIGQKIKNFFQKLVPQPEQ [mCRAMP, mouse cathelicidin-related antimicrobial peptide, α-helical]
KD [1]: no binding; also recorded: no interaction | KD [2]: weak interaction | augmentation of Sak-dependent plasminogen activation [3]: two-fold

CC[C@H](C)[C@@H]1NC(=O)[C@H](CO)NC(=O)[C@@H]2CCCN2C(=O)[C@H](C)NC(=O)CNC(=O)[C@H](CC(C)C)NC(=O)[C@H](CCCCN)NC(=O)[C@H](CCCCN)NC(=O)[C@H](CCSC)NC(=O)[C@H](CCCNC(=N)N)NC(=O)[C@H](Cc2c[nH]c3ccccc23)NC(=O)[C@H](CCC(N)=O)NC(=O)[C@H](Cc2c[nH]c3ccccc23)NC(=O)[C@H](CCCNC(=N)N)NC(=O)[C@H](CCCNC(=N)N)NC(=O)[C@@H](NC(=O)[C@H](CCCCN)NC(=O)[C@@H](N)Cc2ccccc2)CSSC[C@@H](C(=O)N[C@H](C(=O)N[C@@H](CCCNC(=N)N)C(=O)N[C@@H](CCCNC(=N)N)C(=O)N[C@@H](C)C(=O)N[C@@H](Cc2ccccc2)C(=O)O)C(C)C)NC(=O)[C@H]([C@@H](C)O)NC1=O [LfcinB]
Kd [1]: 27.3 µM | Kd [2]: 0.37 µM

B1: Tritrp (C-terminally amidated tritrpticin) (peptide)
peptide: VRRFPWWWPFLRR-NH2
notes: Tritrpticin, a cathelicidin derived from porcine neutrophils; the amidated version was used
Kd [4]: 2.42 µM | dH [4]: -29.3 kJ/mol | stoichiometry N [4]: 1.14 | Kd [5]: 11.2 µM | dH [5]: -12.6 kJ/mol | stoichiometry N [5]: 1.16

B2: Bovine lactoferricin (peptide)
peptide: FKCRRWQWRMKKLGAPSITCVRRAF
modifications: disulfide 3-20
notes: Lactoferricin B, the peptide derived by intestinal proteolysis of bovine lactoferrin; also called LfcinB
Kd [4]: 0.37 µM | dH [4]: -126 kJ/mol | stoichiometry N [4]: 0.99 | Kd [5]: 27.3 µM | dH [5]: -19.6 kJ/mol | stoichiometry N [5]: 0.98 | Kd [6]: 27.2 µM

B3: Mouse cathelicidin-related antimicrobial peptide (peptide)
peptide: GLLRKGGEKIGEKLKKIGQKIKNFFQKLVPQPEQ
notes: Cathelicidin-related antimicrobial peptide (CRAMP), the C-terminal peptide of the mouse cathelicidin precursor; also called mCRAMP
stoichiometry N [7]: ~1 | Kd [8]: ≥ 100 µM
